Patent publication US20050287542A1 (YALE UNIVERSITY, published 2005)
Square brackets hold non-standard residues; d marks the D form. Primed or numbered codes have the meaning given here. Ends that are not written are not given here. * marks the point of attachment. acetamidofluorescein = acetamidofluorescein label attached to the side chain of a C-terminal cysteine residue (made by modifying the cysteine with 5-iodoacetamidofluorescein); acetamidofluorescein″ = acetamidofluorescein (5-iodoacetamidofluorescein attached to the C-terminal Cys); Fluorescein(5-NHCOCH2) = O=C(C*)Nc1ccc2c(c1)C(=O)OC21c2ccc(O)cc2Oc2cc(O)ccc21; pS = N[C@@H](COP(=O)(O)O)C(=O)O

Columns and labels:
[1] = molecular target: carbonic anhydrase II (Sigma); assay: fluorescence emission change of labelled peptide, PBS
carbonic anhydrase II (Sigma), sequence (P00921 2-260): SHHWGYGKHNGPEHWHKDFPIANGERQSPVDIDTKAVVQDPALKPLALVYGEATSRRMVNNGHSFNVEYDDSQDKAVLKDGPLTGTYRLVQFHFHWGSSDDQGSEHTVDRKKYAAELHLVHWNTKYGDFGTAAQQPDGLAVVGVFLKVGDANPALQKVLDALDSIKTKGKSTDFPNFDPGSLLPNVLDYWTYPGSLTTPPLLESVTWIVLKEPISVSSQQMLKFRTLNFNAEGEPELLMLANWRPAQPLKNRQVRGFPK

calmodulin (Sigma) [2] = assay: fluorescence emission change of labelled peptide, HEPES/KCl/CaCl2 buffer
calmodulin (Sigma) [3] = assay: fluorescence polarization
[4] = molecular target: T1, HisKIX (His-tagged CBP KIX domain) (UniProt P45481 586-672); assay: fluorescence polarization
T1 construct: range 586-672; not shown: amino-terminal hexahistidine tag of pET15b
T1 sequence (P45481 586-672): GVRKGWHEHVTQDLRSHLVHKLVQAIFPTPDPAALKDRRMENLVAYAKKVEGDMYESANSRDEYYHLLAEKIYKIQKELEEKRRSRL

calmodulin (Sigma) [5] = assay: fluorescence polarization; remark: listed apart in the source
Protocol: (§1) Binding reactions containing serially diluted target protein and 25-50 nM of fluorescein-labeled peptides (peptide^Flu) were incubated for 30 min at 25° C. Each point represents the average polarization of two to three independent samples; error bars denote standard error. […] Circular and triangular symbols indicate that HisKIX was used as the target protein; the symbols are colored as in FIG. 9 with the exception of the points for peptide C^U, which are in orange for clarity. Square symbols indicate that carbonic anhydrase was used as the target protein. […] Circular and triangular symbols indicate that HisKIX was used as the target protein, and the symbols are colored as in FIG. 9. Square symbols indicate that calmodulin was used as the target protein.

[6] = molecular target: carbonic anhydrase II (Sigma); assay: fluorescence polarization
Protocol: as §1

[7] = molecular target: T1, HisKIX (His-tagged CBP KIX domain); assay: fluorescence polarization; remark: listed apart in the source
Protocol: as §1

calmodulin (Sigma) [8] = assay: fluorescence polarization, calmodulin
Protocol: as §1

[9] = molecular target: T1, HisKIX (His-tagged CBP KIX domain); assay: fluorescence polarization, HisKIX, 25 C
[10] = molecular target: T1, HisKIX (His-tagged CBP KIX domain); assay: fluorescence polarization competition; displaces 25 nM fluorescein-labelled PPKID4^P from 1.5 µM HisKIX
[11] = molecular target: T1, HisKIX (His-tagged CBP KIX domain); assay: fluorescence polarization competition; displaces 25 nM fluorescein-labelled PPKID6^U from 3.0 µM HisKIX
[12] = molecular target: T1, HisKIX (His-tagged CBP KIX domain); assay: fluorescence polarization competition: 25 nM fluorescein-labelled PPKID4^P on 1.5 uM HisKIX, unlabelled KID-AB^P titrated
Protocol: Each point represents an average of three independent samples; the error bars denote standard error.
6) Fluorescence polarization—Fluorescence polarization experiments were performed with a Photon Technology International QuantaMaster C-60 spectrofluorimeter at 25° C. in a 1 cm pathlength Hellma cuvette. […] Briefly, an aliquot of fluorescently labeled peptide was added to a final concentration of 25-50 nM and the binding reaction was incubated for 30 min at 25° C. Thirty minutes was a sufficient length of time for the binding reaction to reach equilibrium, as judged by an absence of change in the observed polarization value of the sample with the highest HisKIX concentration over 1 h.

[13] = molecular target: T1, HisKIX (His-tagged CBP KIX domain); assay: fluorescence polarization; end tied to the member by the Kd of Table 1
Protocol: 6) Fluorescence polarization—Fluorescence polarization experiments were performed with a Photon Technology International QuantaMaster C-60 spectrofluorimeter at 25° C. in a 1 cm pathlength Hellma cuvette. […] Briefly, an aliquot of fluorescently labeled peptide was added to a final concentration of 25-50 nM and the binding reaction was incubated for 30 min at 25° C. Thirty minutes was a sufficient length of time for the binding reaction to reach equilibrium, as judged by an absence of change in the observed polarization value of the sample with the highest HisKIX concentration over 1 h. […] For specificity measurements, carbonic anhydrase II (Sigma) or calmodulin (Sigma) was used as the target protein in place of HisKIX, and fluorescently labeled peptide was used at a final concentration of 50 nM. Carbonic anhydrase was serially diluted in binding buffer as described for HisKIX.
The polarization data were fit using Kaleidagraph v3.51 software to equilibrium binding equation (1), derived from first principles.

[14] = molecular target: T2, GST-KIXY650A (Y650A variant of CBP KIX) (UniProt P45481 586-665, limits assumed); assay: fluorescence polarization
T2 construct: domain: KIX; not shown: GST tag
T2 sequence (P45481 586-665 Y650A limits assumed): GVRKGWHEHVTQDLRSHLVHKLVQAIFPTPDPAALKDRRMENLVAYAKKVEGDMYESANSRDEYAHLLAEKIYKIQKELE

CBP KIX variant Y658A = molecular target: T3, CBP KIX variant Y658A (UniProt P45481 586-665, limits assumed); assay: fluorescence polarization
T3 construct: domain: KIX
T3 sequence (P45481 586-665 Y658A limits assumed): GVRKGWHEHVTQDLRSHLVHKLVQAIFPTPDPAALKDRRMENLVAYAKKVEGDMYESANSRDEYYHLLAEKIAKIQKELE

CBP KIX variant Y658F = molecular target: T4, CBP KIX variant Y658F (UniProt P45481 586-665, limits assumed); assay: fluorescence polarization
T4 construct: domain: KIX
T4 sequence (P45481 586-665 Y658F limits assumed): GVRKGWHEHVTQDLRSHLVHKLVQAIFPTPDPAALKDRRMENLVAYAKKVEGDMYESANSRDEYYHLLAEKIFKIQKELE

CBP KIX variant K662A = molecular target: T5, CBP KIX variant K662A (UniProt P45481 586-665, limits assumed); assay: fluorescence polarization
T5 construct: domain: KIX
T5 sequence (P45481 586-665 K662A limits assumed): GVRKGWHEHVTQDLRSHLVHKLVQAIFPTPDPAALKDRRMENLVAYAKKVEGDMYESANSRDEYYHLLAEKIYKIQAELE

[15] = molecular target: T6, CBP KIX variant Y650A (Example 20) (UniProt P45481 586-665, limits assumed); assay: fluorescence polarization
T6 construct: domain: KIX
T6 sequence (P45481 586-665 Y650A limits assumed): as the sequence (P45481 586-665 Y650A limits assumed) above

CBP KIX variant L603A = molecular target: T7, CBP KIX variant L603A (UniProt P45481 586-665, limits assumed); assay: fluorescence polarization
T7 construct: domain: KIX
T7 sequence (P45481 586-665 L603A limits assumed): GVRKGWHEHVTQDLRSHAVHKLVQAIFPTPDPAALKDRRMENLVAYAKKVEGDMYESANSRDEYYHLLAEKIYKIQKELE

[16] = molecular target: T8, CBP KIX variant LL652-3AA (UniProt P45481 586-665, limits assumed); assay: fluorescence polarization
T8 construct: domain: KIX
T8 sequence (P45481 other isoform, or with tags, fused parts or gaps mutant limits assumed): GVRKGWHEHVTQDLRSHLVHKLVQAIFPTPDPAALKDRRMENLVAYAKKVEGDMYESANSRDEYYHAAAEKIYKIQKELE

CBP KIX variant K606A = molecular target: T9, CBP KIX variant K606A (UniProt P45481 586-665, limits assumed); assay: fluorescence polarization
T9 construct: domain: KIX
T9 sequence (P45481 586-665 K606A limits assumed): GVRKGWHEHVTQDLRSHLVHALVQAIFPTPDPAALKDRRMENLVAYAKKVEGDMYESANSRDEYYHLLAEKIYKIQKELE

CBP KIX variant I657A = molecular target: T10, CBP KIX variant I657A (UniProt P45481 586-665, limits assumed); assay: fluorescence polarization
T10 construct: domain: KIX
T10 sequence (P45481 586-665 I657A limits assumed): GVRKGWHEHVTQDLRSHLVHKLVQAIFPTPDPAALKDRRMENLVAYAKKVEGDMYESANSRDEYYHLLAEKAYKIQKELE

CBP KIX variant L599A = molecular target: T11, CBP KIX variant L599A (UniProt P45481 586-665, limits assumed); assay: fluorescence polarization
T11 construct: domain: KIX
T11 sequence (P45481 586-665 L599A limits assumed): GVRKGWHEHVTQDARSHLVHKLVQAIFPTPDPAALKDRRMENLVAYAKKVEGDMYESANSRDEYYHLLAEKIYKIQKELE

CBP KIX variant Q661A = molecular target: T12, CBP KIX variant Q661A (UniProt P45481 586-665, limits assumed); assay: fluorescence polarization
T12 construct: domain: KIX
T12 sequence (P45481 586-665 Q661A limits assumed): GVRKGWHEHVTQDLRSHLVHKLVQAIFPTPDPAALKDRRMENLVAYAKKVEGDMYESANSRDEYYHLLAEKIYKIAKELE

CBP KIX variant E655A = molecular target: T13, CBP KIX variant E655A (UniProt P45481 586-665, limits assumed); assay: fluorescence polarization
T13 construct: domain: KIX
T13 sequence (P45481 586-665 E655A limits assumed): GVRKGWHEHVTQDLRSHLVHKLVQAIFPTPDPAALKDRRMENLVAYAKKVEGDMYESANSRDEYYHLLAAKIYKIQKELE

CBP KIX variant I660A = molecular target: T14, CBP KIX variant I660A (UniProt P45481 586-665, limits assumed); assay: fluorescence polarization
T14 construct: domain: KIX
T14 sequence (P45481 586-665 I660A limits assumed): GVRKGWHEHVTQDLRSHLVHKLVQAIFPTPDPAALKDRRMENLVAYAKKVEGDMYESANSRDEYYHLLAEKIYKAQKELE

[17] = molecular target: carbonic anhydrase II (Sigma); assay: fluorescence polarization, carbonic anhydrase II
calmodulin (Sigma) [18] = assay: fluorescence polarization, calmodulin (text differs from Table 2)
Protocol: 6) Fluorescence polarization—Fluorescence polarization experiments were performed with a Photon Technology International QuantaMaster C-60 spectrofluorimeter at 25° C. in a 1 cm pathlength Hellma cuvette. […] Briefly, an aliquot of fluorescently labeled peptide was added to a final concentration of 25-50 nM and the binding reaction was incubated for 30 min at 25° C. Thirty minutes was a sufficient length of time for the binding reaction to reach equilibrium, as judged by an absence of change in the observed polarization value of the sample with the highest HisKIX concentration over 1 h. […] For specificity measurements, carbonic anhydrase II (Sigma) or calmodulin (Sigma) was used as the target protein in place of HisKIX, and fluorescently labeled peptide was used at a final concentration of 50 nM.

[19] = molecular target: T15, wild type CBP KIX (Example 20) (UniProt P45481 586-665, limits assumed); assay: fluorescence polarization
T15 construct: domain: KIX
T15 sequence (P45481 586-665 limits assumed): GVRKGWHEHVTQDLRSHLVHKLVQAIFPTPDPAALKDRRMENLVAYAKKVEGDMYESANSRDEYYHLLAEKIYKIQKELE

GQVGRQLAIIGDDINRYC(5‑iodoacetamidofluorescein)-NH2 (also called Bak BH3 peptide; Bak 72-94) [Bak peptide, fluorescein-labelled (Bak-flu)] gave a Kd [1] of 22 µM and a Kd (calmodulin (Sigma) [2]) of 25 µM.

In the case of RRL[pS]FFYILLDLYLDAPGVC(acetamidofluorescein)-NH2 [peptide C^P (chimeric α-helical portion of the PPKID peptides, residues 15-33, phosphorylated)], the “fold lower affinity than PPKID4^P” value (calmodulin (Sigma) [3]) is reported as 4 fold, the “ΔΔG against KID-B^P” value [4] is reported as -1.8 kcal/mol and the “Krel = Kd (CalM)/Kd (HisKIX)” value (calmodulin (Sigma) [5]) is reported as 74. For the same binder, the “Krel = Kd (CA)/Kd (HisKIX)” value [6] was 40, the Kd [7] was 2.4 µM and the Kd (calmodulin (Sigma) [8]) was 178 µM. It also gave a Kd [9] of 2.4 µM.

For TDSQKRREILSRRP[pS]YRKILNDLSSDAPGVC-NH2 (also called CREB KID^P) [unlabeled KID-AB^P], the IC50 [10] was 3.2 µM, the IC50 [11] was 2.4 µM and the “IC50 (read off the curve)” value [12] was ~3 µM.

RRLSFFYILLDLYLDAPGVC(acetamidofluorescein)-NH2 [peptide C^U] was tested, and the “ΔΔG against KID-B^U” value [4] was ≥ -1.5 kcal/mol and the “Krel = Kd (CA)/Kd (HisKIX)” value [6] was 3.

B1: p4099, fluorescein-labelled (designed binder)
peptide: GPSQPTYPGDDAPVEDLIRFVGRLLAYFGDTINRYC(5‑iodoacetamidofluorescein)-NH2
notes: p4121-flu tied to p4099 by order and mass difference only; also called p4099 (GAGT); p4121-flu
Work on B1 yielded a Kd [1] of 8.6 µM and a Kd (calmodulin (Sigma) [2]) of 25 µM.

GASDMTYWGDDAPVRRLSFFYILLDLYLDAPGVC(acetamidofluorescein″)-NH2 (designed binder, also called PPKID1 (unphosphorylated)) [PPKID1^U] was tested, and the “ΔΔG against peptide C^U” value [13] was 0.1 kcal/mol.

GASPHTSSGDDAPVRRLSFFDILLDLYLDAPGVC(acetamidofluorescein″)-NH2 (designed binder, also called PPKID3 (unphosphorylated)) [PPKID3^U] was tested, and the “ΔΔG against peptide C^U” value [13] was -0.7 kcal/mol.

In the case of GISWPTFEGDDAPVRRLEFFYILLDLYLDAPGVC(acetamidofluorescein″)-NH2 (designed binder) [PPKID6 S18E], the “ΔΔG against PPKID6^U” value [4] is reported as 1.2 kcal/mol.

GISWPTFEGDDAPVRRLSFFYILLDLYLDAPGVC(acetamidofluorescein)-NH2 (designed binder, also called PPKID6 (unphosphorylated)) [PPKID6^U] was tested, and the Kd [14] was 0.712 µM, the “Krel = Kd (CalM)/Kd (HisKIX)” value (calmodulin (Sigma) [5]) was > 112 and the “Krel = Kd (CA)/Kd (HisKIX)” value [6] was 53. For the same binder, the “ΔΔG against wild type CBP KIX” value (CBP KIX variant Y658A) was 0.68 kcal/mol, the “ΔΔG against wild type CBP KIX” value (CBP KIX variant Y658F) was 0.97 kcal/mol and the “ΔΔG against wild type CBP KIX” value (CBP KIX variant K662A) was 0.71 kcal/mol. The “ΔΔG against wild type CBP KIX” value [15] was 0.52 kcal/mol, the “ΔΔG against wild type CBP KIX” value (CBP KIX variant L603A) was 0.91 kcal/mol and the “ΔΔG against wild type CBP KIX” value [16] was -0.8 kcal/mol. For the same binder, the “ΔΔG against wild type CBP KIX” value (CBP KIX variant K606A) was 0.47 kcal/mol, the “ΔΔG against wild type CBP KIX” value (CBP KIX variant I657A) was 1.1 kcal/mol and the “ΔΔG against wild type CBP KIX” value (CBP KIX variant L599A) was 1.1 kcal/mol. For the same binder, the “ΔΔG against wild type CBP KIX” value (CBP KIX variant Q661A) was -0.16 kcal/mol, the “ΔΔG against wild type CBP KIX” value (CBP KIX variant E655A) was 0.68 kcal/mol and the “ΔΔG against wild type CBP KIX” value (CBP KIX variant I660A) was 1.4 kcal/mol. The Kd (calmodulin (Sigma) [8]) was > 168 µM and the Kd [17] was 79 µM.

Binder GISWPTFEGDDAPVRRL[pS]FFYILLDLYLDAPGVC(acetamidofluorescein″)-NH2 (designed binder, also called PPKID6 (phosphorylated)) [PPKID6^P] has a ΔΔG upon phosphorylation [4] of -0.5 kcal/mol.

B2: PPKID4^P (designed binder)
peptide: GPSQPTYPGDDAPVRRL[pS]FFYILLDLYLDAPGVC(acetamidofluorescein)-NH2
notes: also called PPKID4 (phosphorylated); wild type PPKID4^P
For B2, the “ΔΔG against wild type CBP KIX” value (CBP KIX variant Y658A) was 1.1 kcal/mol, the “ΔΔG against wild type CBP KIX” value (CBP KIX variant Y658F) was 1.1 kcal/mol and the “ΔΔG against wild type CBP KIX” value (CBP KIX variant K662A) was 1.1 kcal/mol. The “ΔΔG against wild type CBP KIX” value [15] was 0.95 kcal/mol, the “ΔΔG against wild type CBP KIX” value (CBP KIX variant L603A) was 1 kcal/mol and the “ΔΔG against wild type CBP KIX” value [16] was 0.93 kcal/mol. The “ΔΔG against wild type CBP KIX” value (CBP KIX variant K606A) was 0.97 kcal/mol, the “ΔΔG against wild type CBP KIX” value (CBP KIX variant I657A) was 0.89 kcal/mol and the “ΔΔG against wild type CBP KIX” value (CBP KIX variant L599A) was 0.58 kcal/mol. The “ΔΔG against wild type CBP KIX” value (CBP KIX variant Q661A) was 0.35 kcal/mol, the “ΔΔG against wild type CBP KIX” value (CBP KIX variant E655A) was -0.07 kcal/mol and the “ΔΔG against wild type CBP KIX” value (CBP KIX variant I660A) was 0.35 kcal/mol. It also gave a Kd (calmodulin (Sigma) [8]) of 52 µM, a Kd [17] of 106 µM and a Kd (calmodulin (Sigma) [18]) of 51 µM.

H-GPSQPTYPGDDAPVRRA[pS]FFYILLDLYLDAPGVC(Fluorescein(5-NHCOCH2))-NH2 (designed binder) [PPKID4^P variant L17A] was tested, and the “ΔΔG against wild type PPKID4^P” value [19] was 0.07 kcal/mol.

In the case of H-GPSQPTYAGDDAPVRRL[pS]FFYILLDLYLDAPGVC(Fluorescein(5-NHCOCH2))-NH2 (designed binder) [PPKID4^P variant P8A], the “ΔΔG against wild type PPKID4^P” value [19] is reported as 0.33 kcal/mol.

H-GPSQPTYPGDDAPVRRL[pS]FFYILADLYLDAPGVC(Fluorescein(5-NHCOCH2))-NH2 (designed binder) [PPKID4^P variant L24A] was tested, and the “ΔΔG against wild type PPKID4^P” value [19] was 0.38 kcal/mol.

H-GPSQPTYPGDDAPVRRL[pS]FFYILLDLYADAPGVC(Fluorescein(5-NHCOCH2))-NH2 (designed binder) [PPKID4^P variant L28A] was tested, and the “ΔΔG against wild type PPKID4^P” value [19] was 0.18 kcal/mol.

H-GPSQATYPGDDAPVRRL[pS]FFYILLDLYLDAPGVC(Fluorescein(5-NHCOCH2))-NH2 (designed binder) [PPKID4^P variant P5A] was tested, and the “ΔΔG against wild type PPKID4^P” value [19] was 0.3 kcal/mol.

With H-GASQPTYPGDDAPVRRL[pS]FFYILLDLYLDAPGVC(Fluorescein(5-NHCOCH2))-NH2 (designed binder) [PPKID4^P variant P2A] the “ΔΔG against wild type PPKID4^P” value [19] was 0.21 kcal/mol.

For H-GPSQPTYPGDDAPVRRL[pS]FFYILLDLALDAPGVC(Fluorescein(5-NHCOCH2))-NH2 (designed binder) [PPKID4^P variant Y27A], the “ΔΔG against wild type PPKID4^P” value [19] was 0.96 kcal/mol.

H-GPSQPTYPGDDAPVRRL[pS]FAYILLDLYLDAPGVC(Fluorescein(5-NHCOCH2))-NH2 (designed binder) [PPKID4^P variant F20A] was tested, and the “ΔΔG against wild type PPKID4^P” value [19] was 0.85 kcal/mol.
